# Data reported in PMC6198961, “The dimeric structure of wild-type human glycosyltransferase B4GalT1” (PLoS ONE, 2018).
# B1: catalytic domain of human B4GalT1 (Asp99-Ser398), wild type (domain or fragment, UniProt P15291 99-398, looked up)
# chain: DSSPVVDSGPGPASNLTSVPVPHTTALSLPACPEESPLLVGPMLIEFNMPVDLELVAKQNPNVKMGGRYAPRDCVSPHKVAIIIPFRNRQEHLKYWLYYLHPVLQRQQLDYGIYVINQAGDTIFNRAKLLNVGFQEALKDYDYTCFVFSDVDLIPMNDHNAYRCFSQPRHISVAMDKFGFSLPYVQYFGGVSALSKQQFLTINGFPNNYWGWGGEDDDIFNRLVFRGMSISRPNAVVGRCRMIRHSRDKKNEPNPQRFDRIAHTKETMLSDGLNSLTYQVLDVQRYPLYTQITVDIGTPS
# notes: EC 2.4.1.38), human, residues Asp99-Ser398: a piece of the stem domain (Asp99-Leu125) and the catalytic domain (Ser126-Ser398); the construct's calculated molecular weight is printed as 36.35 kDa; The tag is surmised from the nickel purification; In equilibrium between monomer and dimer; also called Beta-1,4-galactosyltransferase 1; recombinant B4GalT1; source: E. coli BL21(DE3) with the CyDisCo …
# Molecular target: the molecule itself
# Assay: SEC; gel filtration on a 24 ml Superdex 200 HR 10/30 column calibrated with γ-globulin (158 kDa), ovalbumin (44 kDa) and myoglobin (17 kDa); monomer and dimer
protein,measurement,value
B1,stoichiometry N,2
